# The supplement of paper PMC9112550, “Optimization of the antimicrobial peptide Bac7 by deep mutational scanning” (BMC Biology, 2022)
# Tested on: Escherichia coli TOP10
# Assay: shrunken log2 fold change of peptide-encoding DNA abundance (4.5 h post-induction vs induction); higher = less antimicrobial activity (less host growth inhibition)
# Conditions: time post-induction: 4.5 h; library: site-saturation at positions 5, 18, 19, 20
# 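Further: peptides expressed intracellularly from a pBAD plasmid library in pooled LB shake-flask culture, induced with 0.3% L-arabinose, DNA abundance read by NGS, three biological replicates, DESeq2 with apeglm shrinkage.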
row,Sequence,shrunken log2 fold change
1,RRIRTRPPRLPRPRPRPPIIPRP,0.0882
2,RRIRWRPPRLPRPRPRPRWWPRP,0.0648
3,RRIRQRPPRLPRPRPRPTRMPRP,0.185
4,RRIRTRPPRLPRPRPRPYKGPRP,-0.0116
5,RRIRLRPPRLPRPRPRPEFHPRP,-0.113
6,RRIRIRPPRLPRPRPRPSRCPRP,-0.174
7,RRIRSRPPRLPRPRPRPVQCPRP,-0.102
8,RRIRFRPPRLPRPRPRPGKDPRP,-0.105
9,RRIRFRPPRLPRPRPRPLSPPRP,-0.476
10,RRIRHRPPRLPRPRPRPSPGPRP,-0.051
11,RRIRWRPPRLPRPRPRPFHEPRP,-0.0657
12,RRIRQRPPRLPRPRPRPFEIPRP,0.0112
13,RRIRWRPPRLPRPRPRPDHHPRP,-0.445
14,RRIRWRPPRLPRPRPRPSMQPRP,-0.0561
15,RRIRNRPPRLPRPRPRPALVPRP,0.461
16,RRIRARPPRLPRPRPRPTSMPRP,0.127
17,RRIRDRPPRLPRPRPRPGTGPRP,0.304
18,RRIRDRPPRLPRPRPRPGEFPRP,-0.117
19,RRIRRRPPRLPRPRPRPYMNPRP,-0.621
20,RRIRYRPPRLPRPRPRPSMWPRP,-1.68
21,RRIRPRPPRLPRPRPRPHKDPRP,-0.339
22,RRIRQRPPRLPRPRPRPRFTPRP,0.184
23,RRIRARPPRLPRPRPRPSYEPRP,-0.069
24,RRIRDRPPRLPRPRPRPFINPRP,-0.337
25,RRIRYRPPRLPRPRPRPLTHPRP,-0.845

row,Sequence,shrunken log2 fold change
1,RRIRERPPRLPRPRPRPFFYPRP,-0.258
2,RRIRMRPPRLPRPRPRPGPEPRP,0.797
3,RRIRFRPPRLPRPRPRPGYPPRP,0.0384
4,RRIRMRPPRLPRPRPRPAMKPRP,-0.00492
5,RRIRCRPPRLPRPRPRPCCEPRP,0.0666
6,RRIRRRPPRLPRPRPRPWWRPRP,0.463
7,RRIRARPPRLPRPRPRPFYSPRP,-0.0849
8,RRIRPRPPRLPRPRPRPYKYPRP,-1.13
9,RRIRLRPPRLPRPRPRPCRVPRP,-0.141
10,RRIRMRPPRLPRPRPRPKEVPRP,0.00253
11,RRIRKRPPRLPRPRPRPVHVPRP,0.0513
12,RRIRPRPPRLPRPRPRPPIRPRP,0.41
13,RRIRIRPPRLPRPRPRPMSHPRP,-0.0862
14,RRIRKRPPRLPRPRPRPWNGPRP,-0.0782
15,RRIRPRPPRLPRPRPRPCDSPRP,0.301
16,RRIRCRPPRLPRPRPRPPDWPRP,0.416
17,RRIRNRPPRLPRPRPRPVVGPRP,0.392
18,RRIRMRPPRLPRPRPRPRFFPRP,0.286
19,RRIRIRPPRLPRPRPRPCSVPRP,-0.466
20,RRIRTRPPRLPRPRPRPDFRPRP,0.0337
21,RRIRMRPPRLPRPRPRPLQAPRP,2.15
22,RRIRVRPPRLPRPRPRPIPVPRP,-0.363
23,RRIRKRPPRLPRPRPRPNSNPRP,-0.115
24,RRIRERPPRLPRPRPRPWKFPRP,-0.301
25,RRIRQRPPRLPRPRPRPHQSPRP,0.0405

row,Sequence,shrunken log2 fold change
1,RRIRRRPPRLPRPRPRPLDKPRP,-0.152
2,RRIRLRPPRLPRPRPRPYIAPRP,-0.261
3,RRIRQRPPRLPRPRPRPTHLPRP,0.205
4,RRIRARPPRLPRPRPRPRECPRP,0.804
5,RRIRTRPPRLPRPRPRPTHCPRP,0.0158
6,RRIRQRPPRLPRPRPRPTQWPRP,0.571
7,RRIRVRPPRLPRPRPRPGNKPRP,-0.286
8,RRIRFRPPRLPRPRPRPMGDPRP,-0.0467
9,RRIRYRPPRLPRPRPRPFVKPRP,-0.79
10,RRIRMRPPRLPRPRPRPGQHPRP,0.406
11,RRIRVRPPRLPRPRPRPQEYPRP,0.0203
12,RRIRSRPPRLPRPRPRPPKYPRP,-0.164
13,RRIRGRPPRLPRPRPRPAQKPRP,0.721
14,RRIRVRPPRLPRPRPRPHQLPRP,-0.243
15,RRIRCRPPRLPRPRPRPHAMPRP,-0.145
16,RRIRQRPPRLPRPRPRPAVSPRP,-0.0348
17,RRIRLRPPRLPRPRPRPHADPRP,-0.299
18,RRIRGRPPRLPRPRPRPCGVPRP,0.578
19,RRIRMRPPRLPRPRPRPQYEPRP,-0.148
20,RRIRRRPPRLPRPRPRPLHKPRP,-0.191
21,RRIRIRPPRLPRPRPRPRLEPRP,0.117
22,RRIRARPPRLPRPRPRPVNRPRP,0.277
23,RRIRQRPPRLPRPRPRPMDVPRP,-0.0102
24,RRIRLRPPRLPRPRPRPGPRPRP,0.693
25,RRIRHRPPRLPRPRPRPAHAPRP,-0.0771
